Data as given in article PMC12361432.

Legend:
[1] = target: CCR9 R44A (human)
[2] = target: CCR9 Y202A (human)
[3] = target: CCR9 K211A (human)
[4] = target: CCR9 K40A (human)
[5] = target: CCR9 S292A (human)
[6] = target: CCR9 D296A (human)
[7] = target: CCR9 F299A (human); assay: flow cytometry on cells; TAMRA-labeled chemokine (four concentrations, highest 300 nM used to compare mutants) incubated 1 h with HEK293T cells expressing WT or mutant CCR9 in FACS buffer (1x PBS, 1 mM EDTA, 1% BSA); median fluorescence; nonspecific binding on parental HEK293T cells; binding ratios mutant:WT
[8] = target: CCR9 Y126A (human); assay: as above
[9] = target: T1, TAMRA-labeled CCL25 (CCL25(1-73), norleucine 64, C-terminal azidolysine coupled to TAMRA-PEG4-DBCO); assay: flow cytometry on cells; conditions: chain shown with the change; 300 nM TAMRA-CCL25; HEK293T cells; read off a plot
T1 chain: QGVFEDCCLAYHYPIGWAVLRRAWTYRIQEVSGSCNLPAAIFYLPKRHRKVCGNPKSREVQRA

A CCL25-induced Ca^2+ mobilization in HEK293T cells expressing the CCR9 mutant, area under the concentration-response curve against WT (CCL25 without dye) [1] of less than 15%, a CCL25-induced Ca^2+ mobilization in HEK293T cells expressing the CCR9 mutant, area under the concentration-response curve against WT (CCL25 without dye) [2] of less than 15% and a CCL25-induced Ca^2+ mobilization in HEK293T cells expressing the CCR9 mutant, area under the concentration-response curve against WT (CCL25 without dye) [3] of less than 15% were found for “TAMRA-labeled CCL25 (CCL25(1-73), norleucine 64, C-terminal azidolysine coupled to TAMRA-PEG4-DBCO) (ligand)” in this work. For the same molecule, the CCL25-induced Ca^2+ mobilization in HEK293T cells expressing the CCR9 mutant, area under the concentration-response curve against WT (CCL25 without dye) [4] was less than 15%, the CCL25-induced Ca^2+ response in HEK293T cells expressing the CCR9 mutant, percent of WT output (CCL25 without dye) [5] was 48% and the CCL25-induced Ca^2+ response in HEK293T cells expressing the CCR9 mutant, percent of WT output (CCL25 without dye) [6] was 15%. The fold change in binding against WT CCR9 [7] was 2.2 fold and the fold change in binding against WT CCR9 [8] was 2.5 fold.

B1: C-C chemokine receptor 9 (CCR9), wild type Y202A (protein)
chain: MTPTDFTSPIPNMADDYGSESTSSMEDYVNFNFTDFYCEKNNVRQFASHFLPPLYWLVFIVGALGNSLVILVYWYCTRVKTMTDMFLLNLAIADLLFLVTLPFWAIAAADQWKFQTFMCKVVNSMYKMNFYSCVLLIMCISVDRYIAIAQAMRAHTWREKRLLYSKMVCFTIWVLAAALCIPEILYSQIKEESGIAICTMVAPSDESTKLKSAVLTLKVILGFFLPFVVMACCYTIIIHTLIQAKKSSKHKALKVTITVLTVFVLSQFPYNCILLVQTIDAYAMFISNCAVSTNIDICFQVTQTIAFFHSCLNPVLYVFVGERFRRDLVKTLKNLGCISQAQWVSFTRREGSLKLSSMLLETTSGALSL
A ratio to parent [9] of 0.73 was found for B1 in this work.

B2: C-C chemokine receptor 9 (CCR9), wild type S292A (protein)
chain: MTPTDFTSPIPNMADDYGSESTSSMEDYVNFNFTDFYCEKNNVRQFASHFLPPLYWLVFIVGALGNSLVILVYWYCTRVKTMTDMFLLNLAIADLLFLVTLPFWAIAAADQWKFQTFMCKVVNSMYKMNFYSCVLLIMCISVDRYIAIAQAMRAHTWREKRLLYSKMVCFTIWVLAAALCIPEILYSQIKEESGIAICTMVYPSDESTKLKSAVLTLKVILGFFLPFVVMACCYTIIIHTLIQAKKSSKHKALKVTITVLTVFVLSQFPYNCILLVQTIDAYAMFISNCAVATNIDICFQVTQTIAFFHSCLNPVLYVFVGERFRRDLVKTLKNLGCISQAQWVSFTRREGSLKLSSMLLETTSGALSL
A ratio to parent [9] of 0.66 was found for B2 in this work.

B3: C-C chemokine receptor 9 (CCR9), wild type D296A (protein)
chain: MTPTDFTSPIPNMADDYGSESTSSMEDYVNFNFTDFYCEKNNVRQFASHFLPPLYWLVFIVGALGNSLVILVYWYCTRVKTMTDMFLLNLAIADLLFLVTLPFWAIAAADQWKFQTFMCKVVNSMYKMNFYSCVLLIMCISVDRYIAIAQAMRAHTWREKRLLYSKMVCFTIWVLAAALCIPEILYSQIKEESGIAICTMVYPSDESTKLKSAVLTLKVILGFFLPFVVMACCYTIIIHTLIQAKKSSKHKALKVTITVLTVFVLSQFPYNCILLVQTIDAYAMFISNCAVSTNIAICFQVTQTIAFFHSCLNPVLYVFVGERFRRDLVKTLKNLGCISQAQWVSFTRREGSLKLSSMLLETTSGALSL
A ratio to parent [9] of 0.81 was found for B3 in this work.

B4: C-C chemokine receptor 9 (CCR9), wild type R44A (protein)
chain: MTPTDFTSPIPNMADDYGSESTSSMEDYVNFNFTDFYCEKNNVAQFASHFLPPLYWLVFIVGALGNSLVILVYWYCTRVKTMTDMFLLNLAIADLLFLVTLPFWAIAAADQWKFQTFMCKVVNSMYKMNFYSCVLLIMCISVDRYIAIAQAMRAHTWREKRLLYSKMVCFTIWVLAAALCIPEILYSQIKEESGIAICTMVYPSDESTKLKSAVLTLKVILGFFLPFVVMACCYTIIIHTLIQAKKSSKHKALKVTITVLTVFVLSQFPYNCILLVQTIDAYAMFISNCAVSTNIDICFQVTQTIAFFHSCLNPVLYVFVGERFRRDLVKTLKNLGCISQAQWVSFTRREGSLKLSSMLLETTSGALSL
A ratio to parent [9] of 0.61 was found for B4 in this work.

B5: C-C chemokine receptor 9 (CCR9), wild type K40A (protein)
chain: MTPTDFTSPIPNMADDYGSESTSSMEDYVNFNFTDFYCEANNVRQFASHFLPPLYWLVFIVGALGNSLVILVYWYCTRVKTMTDMFLLNLAIADLLFLVTLPFWAIAAADQWKFQTFMCKVVNSMYKMNFYSCVLLIMCISVDRYIAIAQAMRAHTWREKRLLYSKMVCFTIWVLAAALCIPEILYSQIKEESGIAICTMVYPSDESTKLKSAVLTLKVILGFFLPFVVMACCYTIIIHTLIQAKKSSKHKALKVTITVLTVFVLSQFPYNCILLVQTIDAYAMFISNCAVSTNIDICFQVTQTIAFFHSCLNPVLYVFVGERFRRDLVKTLKNLGCISQAQWVSFTRREGSLKLSSMLLETTSGALSL
A ratio to parent [9] of 0.83 was found for B5 in this work.

B6: C-C chemokine receptor 9 (CCR9), wild type K211A (protein)
chain: MTPTDFTSPIPNMADDYGSESTSSMEDYVNFNFTDFYCEKNNVRQFASHFLPPLYWLVFIVGALGNSLVILVYWYCTRVKTMTDMFLLNLAIADLLFLVTLPFWAIAAADQWKFQTFMCKVVNSMYKMNFYSCVLLIMCISVDRYIAIAQAMRAHTWREKRLLYSKMVCFTIWVLAAALCIPEILYSQIKEESGIAICTMVYPSDESTKLASAVLTLKVILGFFLPFVVMACCYTIIIHTLIQAKKSSKHKALKVTITVLTVFVLSQFPYNCILLVQTIDAYAMFISNCAVSTNIDICFQVTQTIAFFHSCLNPVLYVFVGERFRRDLVKTLKNLGCISQAQWVSFTRREGSLKLSSMLLETTSGALSL
A ratio to parent [9] of 1.1 was found for B6 in this work.
